Assay results: the Human Domainome abundance scans (Beltran et al. 2025)
± gives the uncertainty stated by the source.

B1: Homeobox protein cut-like 1, residues 941 to 1008; numbered along this chain, P39880 (parent)
chain: QEVDTIELTRQVKEKLAKNGICQRIFGEKVLGLSQGSVSDMLSRPKPWSKLTQKGREPFIRMQLWLNG

Variants of: B1
Assay: abundance fitness (aPCA) (normalised: wild type 0, dead -1); higher = more abundant; growth selection in yeast, the domain comes from the species named
Settings: Homo sapiens

Variant | abundance fitness
QEVDTIELTRQVKEKLAKNGILQRIFGEKVLGLSQGSVSDMLSRPKPWSKLTQKGREPFIRMQLWLNG | -0.102 ± 0.056
QEVDTIELTRQVKEKLAKNGICQRKFGEKVLGLSQGSVSDMLSRPKPWSKLTQKGREPFIRMQLWLNG | -0.022 ± 0.081
QEVDTIELTRQVKEKLAKNGICQRFFGEKVLGLSQGSVSDMLSRPKPWSKLTQKGREPFIRMQLWLNG | 0.07 ± 0.089
QEVDTIELTRQVMEKLAKNGICQRIFGEKVLGLSQGSVSDMLSRPKPWSKLTQKGREPFIRMQLWLNG | -0.278 ± 0.073
QEVDTIELTRQVKEKLAKNGICQRIFGEKVLGLSKGSVSDMLSRPKPWSKLTQKGREPFIRMQLWLNG | -0.016 ± 0.067
QEVDTIELTRQVKEPLAKNGICQRIFGEKVLGLSQGSVSDMLSRPKPWSKLTQKGREPFIRMQLWLNG | -0.052 ± 0.084
QEVDTIELTRQVKESLAKNGICQRIFGEKVLGLSQGSVSDMLSRPKPWSKLTQKGREPFIRMQLWLNG | -0.221 ± 0.065
QEVDTIELTRQVKEKLAKNGICQRIFGEKVLGLSQGSVSDKLSRPKPWSKLTQKGREPFIRMQLWLNG | -0.089 ± 0.072
QEVDTIELTRQVKEKLAKNGICQRIFGELVLGLSQGSVSDMLSRPKPWSKLTQKGREPFIRMQLWLNG | -0.516 ± 0.051
QEVDTIELTRQVKEKLAKNGICQRIFGEVVLGLSQGSVSDMLSRPKPWSKLTQKGREPFIRMQLWLNG | -0.195 ± 0.061
QEVDTIELTRQVKEKLAKNGICQRIFGEKVLGLSQGSVSIMLSRPKPWSKLTQKGREPFIRMQLWLNG | -0.349 ± 0.096
QEVDTIELTRQVKEKLAKNSICQRIFGEKVLGLSQGSVSDMLSRPKPWSKLTQKGREPFIRMQLWLNG | -0.112 ± 0.062
QEVDTIELTRQVKEKLAKNGICQRIFGEKVLGLSQGSVSDMLSRPKPWSKLTQKGREVFIRMQLWLNG | -0.014 ± 0.06
QEVDTIELTRQVKEKLAKNGICQRIFGEKVLGLSQGSVSDMLSRPKPWSKLTQKHREPFIRMQLWLNG | -0.132 ± 0.12
QEVDTIELTRQVKEKLAKNGICQRIFGEKVLGLSQGSVSDMLSAPKPWSKLTQKGREPFIRMQLWLNG | 0 ± 0.058
QEVDTIELTRQVKEKLAKNGICQRIFGEKVWGLSQGSVSDMLSRPKPWSKLTQKGREPFIRMQLWLNG | -0.138 ± 0.063
QEVDTIELTRQVKEKLAKNGICQRIFGEKVTGLSQGSVSDMLSRPKPWSKLTQKGREPFIRMQLWLNG | -0.393 ± 0.063
QEVDTIELTRQVKEKLAKNGICQRIFGEKVLGLSQGSVSDMLSRPKPWSKLTQKGREPFIRMQYWLNG | 0.005 ± 0.1
QEVDTIELTLQVKEKLAKNGICQRIFGEKVLGLSQGSVSDMLSRPKPWSKLTQKGREPFIRMQLWLNG | -0.246 ± 0.049
QEVDTIELTRQVKEKLAKNGICQRIFFEKVLGLSQGSVSDMLSRPKPWSKLTQKGREPFIRMQLWLNG | -0.086 ± 0.1

Variant | abundance fitness
QEVDTIELTRQVKEKLAKNGICQRIFGEKVLGLSQGPVSDMLSRPKPWSKLTQKGREPFIRMQLWLNG | -0.189 ± 0.073
QYVDTIELTRQVKEKLAKNGICQRIFGEKVLGLSQGSVSDMLSRPKPWSKLTQKGREPFIRMQLWLNG | -0.329 ± 0.03
QEVDTIELTRQVKEKLAKNGICWRIFGEKVLGLSQGSVSDMLSRPKPWSKLTQKGREPFIRMQLWLNG | -0.044 ± 0.076
QEVDTIELTRQVKEKLAKNGICQRIFGEKVLGLSQGSVSDMLSRPKPWSKLTQKGTEPFIRMQLWLNG | -0.373 ± 0.082
QEVDTIELTRQVKEKLAKNGICQRIFGEKVLGLSQGSVSDMLSRPKPWSKLTQKGNEPFIRMQLWLNG | -1.16 ± 0.23
QEVDTIELTRQVKEKLAWNGICQRIFGEKVLGLSQGSVSDMLSRPKPWSKLTQKGREPFIRMQLWLNG | -0.272 ± 0.071
QEVDTIELTRQVKEKLAKNGICQRIFGEKVLGLSQGSVSDMLSRPKPWRKLTQKGREPFIRMQLWLNG | -0.011 ± 0.052
QEVDTIELTRQVKEKLAKNGICQRIFGEKVLGLSQGSVSDMLSRPKPWYKLTQKGREPFIRMQLWLNG | -0.255 ± 0.077
QEVDTTELTRQVKEKLAKNGICQRIFGEKVLGLSQGSVSDMLSRPKPWSKLTQKGREPFIRMQLWLNG | -0.029 ± 0.062
QEVDTIELTRQVKEKLAKNGICQKIFGEKVLGLSQGSVSDMLSRPKPWSKLTQKGREPFIRMQLWLNG | -0.07 ± 0.09
QEVDTIELTRQVKEKLAKNGICQPIFGEKVLGLSQGSVSDMLSRPKPWSKLTQKGREPFIRMQLWLNG | -0.559 ± 0.082
QEVDTIELTRQVKEKLAKNGICQRIFGEKVLGLSQGSVSDMLSRPKPWSKITQKGREPFIRMQLWLNG | -0.113 ± 0.15
QEVDTIELTRHVKEKLAKNGICQRIFGEKVLGLSQGSVSDMLSRPKPWSKLTQKGREPFIRMQLWLNG | -0.114 ± 0.086
QEVDTIELTRQNKEKLAKNGICQRIFGEKVLGLSQGSVSDMLSRPKPWSKLTQKGREPFIRMQLWLNG | -0.28 ± 0.11
QEVDTIELTRQVKEKLAKNGICQRIFGEKVLGLSQASVSDMLSRPKPWSKLTQKGREPFIRMQLWLNG | 0.067 ± 0.073
QEPDTIELTRQVKEKLAKNGICQRIFGEKVLGLSQGSVSDMLSRPKPWSKLTQKGREPFIRMQLWLNG | -0.111 ± 0.07
QERDTIELTRQVKEKLAKNGICQRIFGEKVLGLSQGSVSDMLSRPKPWSKLTQKGREPFIRMQLWLNG | -0.051 ± 0.061
QEVDTIELTRQVKEKLAKNGICQRIYGEKVLGLSQGSVSDMLSRPKPWSKLTQKGREPFIRMQLWLNG | -0.741 ± 0.11
QEVDTIELLRQVKEKLAKNGICQRIFGEKVLGLSQGSVSDMLSRPKPWSKLTQKGREPFIRMQLWLNG | -0.405 ± 0.046
QEVDTIELTRQVKEKLAKNGICQRIFGEKVLGLSQGSVSDMLSRPKPWSKLTQKGREPFIRMQLDLNG | -0.994 ± 0.15
